From article PMC8557468, “Evolution-Based Protein Engineering for Antifungal Peptide Improvement” (Molecular Biology and Evolution, 2021)
Positions of bridges follow the written chain, without caps; N, C: chain ends. No end group written: not given here.

Columns and labels:
mouse erythrocytes = assay: Hemolytic assay; assay type: cell-based; settings: 50 μM peptide, 37 °C, 15 min, absorbance 570 nm; n = 3
Method: Hemolysis of mouse erythrocytes by peptides was assayed according to the standard method ([Gao et al. 2009]). In brief, the cells were incubated with various concentrations of peptides (6.25, 12.5, 25, or 50 μM) at 37 °C for 15 min. Absorbance was measured at 570 nm with the SpectraMax i3x Multi-Mode microplate reader (Molecular Devices). The percentage of hemolysis was determined as (Apep−Ablank)/(Atot−Ablank)×100. Ablank and Apep were evaluated in the absence or presence of peptides and 100% hemolysis (Atot) was obtained in the presence of 1% Triton X-100. Meucin-18 ([Gao et al. 2009]) was used positive control.

[1] = n = 3
Method: To assess serum stability, peptides were incubated in fresh mouse serum for 0, 12, and 24 h at 37 °C, respectively. Residual activities were measured by inhibition zone assays against C. albicans B16. For thermal stability assay, E15K was incubated at 50 °C for 1–5 days, 80 °C or 100 °C for 5 min. CD analysis and inhibition zone assay were used to evaluate a potential impact of heating on the structure and function of the peptide.

## DVKSGHYKGPCYHDKNCNGVCRDEGYKSGHCSRWGGACWCDT (disulfide 11-31, 17-38, 21-40) [E15K]
Mouse erythrocytes
  hemolysis on mouse erythrocytes: no detectable hemolysis
[1]; fresh mouse serum, 37 °C, 0, 12 and 24 h, residual activity by inhibition zone against C. albicans B16, 1.0 nmol
  serum stability (residual antifungal activity): retained its complete antifungal activity
[1]; in water at 50 °C for 1–5 days or 80–100 °C for 5 min, CD spectra and inhibition zone assay
  thermal stability (activity and structure after heating): its activity and structure were not obviously changed
